According to patent publication US20060148746, “Nucleic acid inhibitors of glutamate receptors” (published 2006):

Biological target: GluR2Qflip AMPA receptor (homomeric channel) (UniProt P19491-2 P19491-2:22-883)
Experiment: inhibition; intrinsic KI, whole-cell current, competitive; pH 7.4, 22 C, -60 mV
Settings: tags: expressed in HEK-293S cells (co-transfected with GFP and SV40 large T antigen); chain copies: 4
Protocol: Glutamate, a natural neurotransmitter, was used as the activating ligand, and the resulting receptor response in a single cell was recorded. Recording electrodes were made from glass capillary pipettes and fire polished. The electrode resistance was ˜3M Ω when filled with the electrode solution. The electrode solution contained 110 mM CsF, 30 mM CsCl, 4 mM MaCl, 0.5 mM CaCl₂, 5 mM EGTA, and 10 mM Hepes (pH 7.4 adjusted by CsOH). The external bath solution contained 150 mM NaCl, 3 mM KCl, 1 mM CaCl₂, 1 mM MgCl₂ and 10 mM Hepes (pH7.4 adjusted by NaOH). The GFP fluorescence in transfected cells was visualized using an Axiovert S100 microscope with a fluorescent detection system from Carl Zeiss (Thornwood, N.Y.). The whole-cell current was recorded using an Axonpatch-200B amplifier at a cutoff frequency of 2-20 kHz by a built-in eight-pole Bessel filter and digitized at 5-50 kHz sampling frequency using a Digidata 1322A from Axon Instruments (Union City, Calif.). The data acquisition software was pCLAMP 8, also from Axon Instruments.
The present invention relates to the discovery and characterization of a group of water-soluble AMPA receptor inhibitors, which are RNA aptamers that can fold into unique three-dimensional structures that confer high affinity and specificity against biological targets. […]

Chain of GluR2Qflip AMPA receptor (homomeric channel) (P19491 other isoform, or with tags, fused parts or gaps): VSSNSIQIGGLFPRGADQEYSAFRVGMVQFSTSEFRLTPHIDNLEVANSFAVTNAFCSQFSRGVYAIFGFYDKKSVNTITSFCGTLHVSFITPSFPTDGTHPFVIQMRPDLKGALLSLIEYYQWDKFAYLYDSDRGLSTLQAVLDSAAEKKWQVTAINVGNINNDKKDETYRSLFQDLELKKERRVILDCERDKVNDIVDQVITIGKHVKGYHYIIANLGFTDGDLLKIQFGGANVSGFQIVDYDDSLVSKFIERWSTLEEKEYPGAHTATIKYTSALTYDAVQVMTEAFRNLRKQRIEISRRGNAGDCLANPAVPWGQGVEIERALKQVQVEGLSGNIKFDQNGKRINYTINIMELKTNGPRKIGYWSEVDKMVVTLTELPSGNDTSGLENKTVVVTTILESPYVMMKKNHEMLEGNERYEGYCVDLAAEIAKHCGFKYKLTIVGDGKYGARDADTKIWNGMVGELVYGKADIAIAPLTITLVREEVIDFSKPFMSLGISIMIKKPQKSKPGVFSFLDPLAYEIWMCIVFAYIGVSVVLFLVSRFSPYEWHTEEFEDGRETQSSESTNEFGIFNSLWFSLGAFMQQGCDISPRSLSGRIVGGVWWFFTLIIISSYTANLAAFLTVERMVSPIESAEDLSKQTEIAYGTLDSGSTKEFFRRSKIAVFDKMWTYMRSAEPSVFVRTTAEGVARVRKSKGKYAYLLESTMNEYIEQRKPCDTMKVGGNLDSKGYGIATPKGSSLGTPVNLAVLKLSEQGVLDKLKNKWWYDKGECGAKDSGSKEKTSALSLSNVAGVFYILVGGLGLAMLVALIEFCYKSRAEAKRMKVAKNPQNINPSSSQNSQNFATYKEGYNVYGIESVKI

B1: AN57 (57-nt minimal aptamer, M1+M2 mixture) (ssRNA)
RNA: GGGCGAAUUCACUGCCAUCUAGGCAGUAACCAGGAGUUAGUAGGACAAGUUUCGUCC
Ki: 133 nM
